Measured values as given in patent US20080306007A1, “AGENTS FOR PROPHYLAXIS OR TREATMENT OF NEUROLOGICAL RELATED DISEASES AND CONDITIONS” (Newcastle Innovation Limited, priority 2007, published 2008).

Experiments:
U2OS cells = assay: Transferrin (Tfn) endocytosis (RME) in U2OS cells; type: cell-based; conditions: 15 min peptide preincubation at various concentrations, Tfn 15 min at 37° C.
Experimental: Briefly, non-neuronal U2OS cells were preincubated with vehicle only or each peptide at various concentrations for 15 min. Cells were then incubated with Tfn for 15 min at 37° C., acid washed, fixed and internalized Tfn was detected by fluorescence microscopy. Quantitative analysis of endocytosis in the presence of different concentrations of the peptides is shown as mean fluorescence as a percent of fluorescence in control cells. The results shown in FIG. 11 are representative of 2 independent experiments. Endocytosis in control cells (no peptide) is expressed as 100%.

[1] = biological target: T1, dynamin I-syndapin I complex (Rattus norvegicus, UniProt Q9Z0W5); assay: Peptide disruption of immunoprecipitated dynamin I-syndapin I complex from nerve terminals; type: binding; conditions: syndapin I or dynamin I immunoprecipitates incubated with peptide
T1 construct: Syndapin I or dynamin I were immunoprecipitated from nerve terminals; from tissue; host or cells: rat brain crude (P2) synaptosomes
Experimental: (§1) To determine whether the phospho-box sequence might account for syndapin I recruitment to dynamin I, the ability of a DynI769-784AA peptide (FIG. 5a) to disrupt their interaction was tested. Syndapin I or dynamin I were immunoprecipitated from nerve terminals and the individual protein complexes were incubated with DynI769-784AA (SEQ ID No. 8) peptide (see below). Their interaction in both cases was reduced by the peptide, as indicated by the specific release of either binding partner from the bead-bound complex (FIG. 4c). No elution of endophilin I (FIG. 4c) or amphiphysin I (data not shown) was detected, highlighting the specificity of the interaction.
(§2) Crude (P2) synaptosomes were prepared from rat brain and lysed as described in Example 1.1.3. Synaptosome lysates were incubated with 5 μg of anti-syndapin I or […] pre-bound to protein G-sepharose (Roche) for 3 h at 4° C. Beads were washed with ice-cold PBS, eluted in SDS-PAGE sample buffer and blotted with anti-syndapin I, anti-endophilin I and anti-dynamin I antibodies.

amphiphysin I = biological target: T2, amphiphysin I (Rattus norvegicus, UniProt O08838); assay: Elution of amphiphysin I from immunoprecipitated complex by peptide; type: binding; conditions: data not shown
T2 construct: Syndapin I or dynamin I were immunoprecipitated from nerve terminals; from tissue; host or cells: rat brain crude (P2) synaptosomes
T2 sequence (O08838 1-683): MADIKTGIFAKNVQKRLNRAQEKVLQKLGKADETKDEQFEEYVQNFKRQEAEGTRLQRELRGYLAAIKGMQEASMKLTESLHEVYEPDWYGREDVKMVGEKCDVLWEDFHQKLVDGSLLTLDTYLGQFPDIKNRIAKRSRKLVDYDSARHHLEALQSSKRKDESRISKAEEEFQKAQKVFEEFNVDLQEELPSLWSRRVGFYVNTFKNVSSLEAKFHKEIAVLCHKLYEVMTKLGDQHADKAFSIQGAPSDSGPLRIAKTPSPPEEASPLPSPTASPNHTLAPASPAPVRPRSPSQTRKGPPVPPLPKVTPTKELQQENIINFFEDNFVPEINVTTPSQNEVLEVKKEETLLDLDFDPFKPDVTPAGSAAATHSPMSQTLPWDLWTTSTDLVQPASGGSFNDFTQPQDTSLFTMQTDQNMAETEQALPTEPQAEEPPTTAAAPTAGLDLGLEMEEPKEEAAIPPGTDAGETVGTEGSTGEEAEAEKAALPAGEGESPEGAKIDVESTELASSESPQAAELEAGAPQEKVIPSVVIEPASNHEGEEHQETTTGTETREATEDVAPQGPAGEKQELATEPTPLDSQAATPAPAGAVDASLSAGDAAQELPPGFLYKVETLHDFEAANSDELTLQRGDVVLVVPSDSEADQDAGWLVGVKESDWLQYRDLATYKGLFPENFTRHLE
Experimental: as §1, §2

T1 sequence (Q9Z0W5 whole entry, one chain of several): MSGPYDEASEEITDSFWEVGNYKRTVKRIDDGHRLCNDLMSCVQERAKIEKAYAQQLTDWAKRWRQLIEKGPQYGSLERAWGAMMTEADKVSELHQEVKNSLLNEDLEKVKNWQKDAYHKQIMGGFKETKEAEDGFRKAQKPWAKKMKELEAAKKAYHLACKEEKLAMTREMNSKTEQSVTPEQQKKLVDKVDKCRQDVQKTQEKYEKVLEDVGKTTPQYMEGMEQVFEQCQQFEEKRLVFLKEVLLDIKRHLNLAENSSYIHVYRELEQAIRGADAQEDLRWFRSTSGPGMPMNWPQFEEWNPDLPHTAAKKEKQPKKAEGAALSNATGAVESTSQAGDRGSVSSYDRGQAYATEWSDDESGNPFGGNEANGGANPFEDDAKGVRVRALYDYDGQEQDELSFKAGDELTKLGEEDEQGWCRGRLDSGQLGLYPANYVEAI

## DynI769-784AA: Dynamin I phospho-box mimetic peptide (residues 769-784), AA mutant, tagged with penetratin heptapeptide RRMKWKK (RRMKWKKPAGRRAPTSAPTPQRR; listed as Rattus norvegicus)
U2OS cells
  endocytosis of transferrin (Tfn), RME: without effect
[1]
  dynamin I-syndapin I interaction (release of binding partner from bead-bound complex): reduced
Amphiphysin I
  elution of amphiphysin I from complex: No elution
